Each block holds one binder with its values, some of them ahead of it. *1 amine or outer side, *2 acyl side, *3 side chain or, on linkers, in order; H or OH if unused. Where no end group is shown, it is not given here. Side-chain parts run from the residue outwards. The star is where a group is joined. γGlu = O=C(O)[C@H](CCC(=O)[*:2])N[*:1]; Hydrocinnamoyl = O=C(CCc1ccccc1)*; Palmitoyl = CCCCCCCCCCCCCCCC(=O)*; Hexanoyl = CCCCCC(=O)*; Bz = O=C(c1ccccc1)*
Target: T1, human VPAC2 receptor (human) (UniProt P41587)
T1 sequence: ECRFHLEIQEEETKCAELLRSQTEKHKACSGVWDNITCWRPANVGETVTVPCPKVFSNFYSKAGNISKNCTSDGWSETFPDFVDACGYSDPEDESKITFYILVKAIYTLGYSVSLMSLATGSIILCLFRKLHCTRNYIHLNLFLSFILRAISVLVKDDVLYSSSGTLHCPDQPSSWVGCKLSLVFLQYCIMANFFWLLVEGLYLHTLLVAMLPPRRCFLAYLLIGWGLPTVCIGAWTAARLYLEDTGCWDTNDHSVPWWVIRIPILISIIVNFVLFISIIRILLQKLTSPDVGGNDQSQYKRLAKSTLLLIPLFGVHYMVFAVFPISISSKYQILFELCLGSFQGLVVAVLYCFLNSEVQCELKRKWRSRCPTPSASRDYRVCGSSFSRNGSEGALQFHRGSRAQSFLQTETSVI

B1: P90 (peptide)
peptide: Hydrocinnamoyl-HSDAVFTDNYTRLRKQVAAKKYLQSIKNSRTSPPP-NH2
SMILES: CC[C@H](C)[C@H](NC(=O)[C@H](CO)NC(=O)[C@H](CCC(N)=O)NC(=O)[C@H](CC(C)C)NC(=O)[C@H](Cc1ccc(O)cc1)NC(=O)[C@H](CCCCN)NC(=O)[C@H](CCCCN)NC(=O)[C@H](C)NC(=O)[C@H](C)NC(=O)[C@@H](NC(=O)[C@H](CCC(N)=O)NC(=O)[C@H](CCCCN)NC(=O)[C@H](CCCNC(=N)N)NC(=O)[C@H](CC(C)C)NC(=O)[C@H](CCCNC(=N)N)NC(=O)[C@@H](NC(=O)[C@H](Cc1ccc(O)cc1)NC(=O)[C@H](CC(N)=O)NC(=O)[C@H](CC(=O)O)NC(=O)[C@@H](NC(=O)[C@H](Cc1ccccc1)NC(=O)[C@@H](NC(=O)[C@H](C)NC(=O)[C@H](CC(=O)O)NC(=O)[C@H](CO)NC(=O)[C@H](Cc1c[nH]cn1)NC(=O)CCc1ccccc1)C(C)C)[C@@H](C)O)[C@@H](C)O)C(C)C)C(=O)N[C@@H](CCCCN)C(=O)N[C@@H](CC(N)=O)C(=O)N[C@@H](CO)C(=O)N[C@@H](CCCNC(=N)N)C(=O)N[C@H](C(=O)N[C@@H](CO)C(=O)N1CCC[C@H]1C(=O)N1CCC[C@H]1C(=O)N1CCC[C@H]1C(N)=O)[C@@H](C)O
EC50 (nM) for cAMP generation, Alpha Screen: 4.01 nM
EC50 (nM) for cAMP generation, DiscoveRx: 1.7 nM

B3: P91 (peptide)
peptide: Bz-HSDAVFTDNYTRLRKQVAAKKYLQSIKNSRTSPPP-NH2
SMILES: CC[C@H](C)[C@H](NC(=O)[C@H](CO)NC(=O)[C@H](CCC(N)=O)NC(=O)[C@H](CC(C)C)NC(=O)[C@H](Cc1ccc(O)cc1)NC(=O)[C@H](CCCCN)NC(=O)[C@H](CCCCN)NC(=O)[C@H](C)NC(=O)[C@H](C)NC(=O)[C@@H](NC(=O)[C@H](CCC(N)=O)NC(=O)[C@H](CCCCN)NC(=O)[C@H](CCCNC(=N)N)NC(=O)[C@H](CC(C)C)NC(=O)[C@H](CCCNC(=N)N)NC(=O)[C@@H](NC(=O)[C@H](Cc1ccc(O)cc1)NC(=O)[C@H](CC(N)=O)NC(=O)[C@H](CC(=O)O)NC(=O)[C@@H](NC(=O)[C@H](Cc1ccccc1)NC(=O)[C@@H](NC(=O)[C@H](C)NC(=O)[C@H](CC(=O)O)NC(=O)[C@H](CO)NC(=O)[C@H](Cc1c[nH]cn1)NC(=O)c1ccccc1)C(C)C)[C@@H](C)O)[C@@H](C)O)C(C)C)C(=O)N[C@@H](CCCCN)C(=O)N[C@@H](CC(N)=O)C(=O)N[C@@H](CO)C(=O)N[C@@H](CCCNC(=N)N)C(=O)N[C@H](C(=O)N[C@@H](CO)C(=O)N1CCC[C@H]1C(=O)N1CCC[C@H]1C(=O)N1CCC[C@H]1C(N)=O)[C@@H](C)O
EC50 (nM) for cAMP generation, Alpha Screen: 1.9 nM
EC50 (nM) for cAMP generation, DiscoveRx: 0.76 nM

B5: P178 (peptide)
peptide: Hexanoyl-HSDAVFTDNYTRLRKAAAAKKYLQSIKNSRTSPPP-NH2
SMILES: CCCCCC(=O)N[C@@H](Cc1c[nH]cn1)C(=O)N[C@@H](CO)C(=O)N[C@@H](CC(=O)O)C(=O)N[C@@H](C)C(=O)N[C@H](C(=O)N[C@@H](Cc1ccccc1)C(=O)N[C@H](C(=O)N[C@@H](CC(=O)O)C(=O)N[C@@H](CC(N)=O)C(=O)N[C@@H](Cc1ccc(O)cc1)C(=O)N[C@H](C(=O)N[C@@H](CCCNC(=N)N)C(=O)N[C@@H](CC(C)C)C(=O)N[C@@H](CCCNC(=N)N)C(=O)N[C@@H](CCCCN)C(=O)N[C@@H](C)C(=O)N[C@@H](C)C(=O)N[C@@H](C)C(=O)N[C@@H](C)C(=O)N[C@@H](CCCCN)C(=O)N[C@@H](CCCCN)C(=O)N[C@@H](Cc1ccc(O)cc1)C(=O)N[C@@H](CC(C)C)C(=O)N[C@@H](CCC(N)=O)C(=O)N[C@@H](CO)C(=O)N[C@H](C(=O)N[C@@H](CCCCN)C(=O)N[C@@H](CC(N)=O)C(=O)N[C@@H](CO)C(=O)N[C@@H](CCCNC(=N)N)C(=O)N[C@H](C(=O)N[C@@H](CO)C(=O)N1CCC[C@H]1C(=O)N1CCC[C@H]1C(=O)N1CCC[C@H]1C(N)=O)[C@@H](C)O)[C@@H](C)CC)[C@@H](C)O)[C@@H](C)O)C(C)C
EC50 (nM) for cAMP generation, Alpha Screen: 0.12 nM

B6: P128 (peptide)
peptide: HSDAVFTDNYTRLRKQVAAKKYLQSIKNSRTSPPPK(Trp)-NH2
modifications: N-terminus assumed
SMILES: CC[C@H](C)[C@H](NC(=O)[C@H](CO)NC(=O)[C@H](CCC(N)=O)NC(=O)[C@H](CC(C)C)NC(=O)[C@H](Cc1ccc(O)cc1)NC(=O)[C@H](CCCCN)NC(=O)[C@H](CCCCN)NC(=O)[C@H](C)NC(=O)[C@H](C)NC(=O)[C@@H](NC(=O)[C@H](CCC(N)=O)NC(=O)[C@H](CCCCN)NC(=O)[C@H](CCCNC(=N)N)NC(=O)[C@H](CC(C)C)NC(=O)[C@H](CCCNC(=N)N)NC(=O)[C@@H](NC(=O)[C@H](Cc1ccc(O)cc1)NC(=O)[C@H](CC(N)=O)NC(=O)[C@H](CC(=O)O)NC(=O)[C@@H](NC(=O)[C@H](Cc1ccccc1)NC(=O)[C@@H](NC(=O)[C@H](C)NC(=O)[C@H](CC(=O)O)NC(=O)[C@H](CO)NC(=O)[C@@H](N)Cc1c[nH]cn1)C(C)C)[C@@H](C)O)[C@@H](C)O)C(C)C)C(=O)N[C@@H](CCCCN)C(=O)N[C@@H](CC(N)=O)C(=O)N[C@@H](CO)C(=O)N[C@@H](CCCNC(=N)N)C(=O)N[C@H](C(=O)N[C@@H](CO)C(=O)N1CCC[C@H]1C(=O)N1CCC[C@H]1C(=O)N1CCC[C@H]1C(=O)N[C@@H](CCCCNC(=O)[C@@H](N)Cc1c[nH]c2ccccc12)C(N)=O)[C@@H](C)O
EC50 (nM) for cAMP generation, Alpha Screen: 1.78 nM

Further lines, results first:

EC50 (nM) for cAMP generation, Alpha Screen: 1.82 nM
EC50 (nM) for cAMP generation, DiscoveRx: 2.8 nM
B2: P80 (peptide)
peptide: HSDAVFTDNYTRLRKQVAAKKYLQSIKNSRTSPPPK([γGlu-Palmitoyl])-NH2
modifications: N-terminus assumed
SMILES: CCCCCCCCCCCCCCCC(=O)N[C@@H](CCC(=O)NCCCC[C@H](NC(=O)[C@@H]1CCCN1C(=O)[C@@H]1CCCN1C(=O)[C@@H]1CCCN1C(=O)[C@H](CO)NC(=O)[C@@H](NC(=O)[C@H](CCCNC(=N)N)NC(=O)[C@H](CO)NC(=O)[C@H](CC(N)=O)NC(=O)[C@H](CCCCN)NC(=O)[C@@H](NC(=O)[C@H](CO)NC(=O)[C@H](CCC(N)=O)NC(=O)[C@H](CC(C)C)NC(=O)[C@H](Cc1ccc(O)cc1)NC(=O)[C@H](CCCCN)NC(=O)[C@H](CCCCN)NC(=O)[C@H](C)NC(=O)[C@H](C)NC(=O)[C@@H](NC(=O)[C@H](CCC(N)=O)NC(=O)[C@H](CCCCN)NC(=O)[C@H](CCCNC(=N)N)NC(=O)[C@H](CC(C)C)NC(=O)[C@H](CCCNC(=N)N)NC(=O)[C@@H](NC(=O)[C@H](Cc1ccc(O)cc1)NC(=O)[C@H](CC(N)=O)NC(=O)[C@H](CC(=O)O)NC(=O)[C@@H](NC(=O)[C@H](Cc1ccccc1)NC(=O)[C@@H](NC(=O)[C@H](C)NC(=O)[C@H](CC(=O)O)NC(=O)[C@H](CO)NC(=O)[C@@H](N)Cc1c[nH]cn1)C(C)C)[C@@H](C)O)[C@@H](C)O)C(C)C)[C@@H](C)CC)[C@@H](C)O)C(N)=O)C(=O)O

EC50 (nM) for cAMP generation, Alpha Screen: 0.29 nM
B4: P156 (peptide)
peptide: Hexanoyl-HSDAVFTDNYTRLLLKVAAKKYLQSIKNSRTSPPP-NH2
SMILES: CCCCCC(=O)N[C@@H](Cc1c[nH]cn1)C(=O)N[C@@H](CO)C(=O)N[C@@H](CC(=O)O)C(=O)N[C@@H](C)C(=O)N[C@H](C(=O)N[C@@H](Cc1ccccc1)C(=O)N[C@H](C(=O)N[C@@H](CC(=O)O)C(=O)N[C@@H](CC(N)=O)C(=O)N[C@@H](Cc1ccc(O)cc1)C(=O)N[C@H](C(=O)N[C@@H](CCCNC(=N)N)C(=O)N[C@@H](CC(C)C)C(=O)N[C@@H](CC(C)C)C(=O)N[C@@H](CC(C)C)C(=O)N[C@@H](CCCCN)C(=O)N[C@H](C(=O)N[C@@H](C)C(=O)N[C@@H](C)C(=O)N[C@@H](CCCCN)C(=O)N[C@@H](CCCCN)C(=O)N[C@@H](Cc1ccc(O)cc1)C(=O)N[C@@H](CC(C)C)C(=O)N[C@@H](CCC(N)=O)C(=O)N[C@@H](CO)C(=O)N[C@H](C(=O)N[C@@H](CCCCN)C(=O)N[C@@H](CC(N)=O)C(=O)N[C@@H](CO)C(=O)N[C@@H](CCCNC(=N)N)C(=O)N[C@H](C(=O)N[C@@H](CO)C(=O)N1CCC[C@H]1C(=O)N1CCC[C@H]1C(=O)N1CCC[C@H]1C(N)=O)[C@@H](C)O)[C@@H](C)CC)C(C)C)[C@@H](C)O)[C@@H](C)O)C(C)C

EC50 (nM) for cAMP generation, Alpha Screen: 0.06 nM
B7: P157 (peptide)
peptide: Hexanoyl-HSDAVFTDQYTRLRKQVAAKKYLQSIKQSRTSPPP-NH2
SMILES: CCCCCC(=O)N[C@@H](Cc1c[nH]cn1)C(=O)N[C@@H](CO)C(=O)N[C@@H](CC(=O)O)C(=O)N[C@@H](C)C(=O)N[C@H](C(=O)N[C@@H](Cc1ccccc1)C(=O)N[C@H](C(=O)N[C@@H](CC(=O)O)C(=O)N[C@@H](CCC(N)=O)C(=O)N[C@@H](Cc1ccc(O)cc1)C(=O)N[C@H](C(=O)N[C@@H](CCCNC(=N)N)C(=O)N[C@@H](CC(C)C)C(=O)N[C@@H](CCCNC(=N)N)C(=O)N[C@@H](CCCCN)C(=O)N[C@@H](CCC(N)=O)C(=O)N[C@H](C(=O)N[C@@H](C)C(=O)N[C@@H](C)C(=O)N[C@@H](CCCCN)C(=O)N[C@@H](CCCCN)C(=O)N[C@@H](Cc1ccc(O)cc1)C(=O)N[C@@H](CC(C)C)C(=O)N[C@@H](CCC(N)=O)C(=O)N[C@@H](CO)C(=O)N[C@H](C(=O)N[C@@H](CCCCN)C(=O)N[C@@H](CCC(N)=O)C(=O)N[C@@H](CO)C(=O)N[C@@H](CCCNC(=N)N)C(=O)N[C@H](C(=O)N[C@@H](CO)C(=O)N1CCC[C@H]1C(=O)N1CCC[C@H]1C(=O)N1CCC[C@H]1C(N)=O)[C@@H](C)O)[C@@H](C)CC)C(C)C)[C@@H](C)O)[C@@H](C)O)C(C)C
